Measurements as given in the supplement of paper PMC10126150.
± gives the standard deviation of the averaged measurements.

Test system: ATP
Assay: switch fluorescence ratio, 500 uM ATP over buffer (Cy3 cluster intensity, sum of 5 cycles each) (fold (ratio)); higher = stronger signal-on switching upon ATP binding; sequences stand for … in TCGTCGGCAGCGTCAGATGTGTATAAGAGACAGTTTTTTTTTTTTTTTTTTTTTTTTT…TC
Settings: aptamer strand: ATP DNA aptamer (quencher-CACCTGGGGGAGTATTGCGGAGGAAGG + anchor), 100 nM annealed; ATP concentration: 500 uM
Outline: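 Per cluster, summed Cy3 intensity from the target cycles was divided by that from the buffer cycles to give the fluorescence ratio, then averaged per switch-domain sequence. Clusters outside 100-1000 RFU were excluded. The Cy3-labelled switching-strand clusters, on a modified Illumina MiSeq flow-cell, were annealed to 100 nM quencher-labelled ATP aptamer and imaged in selection buffer, then after 15 min with 500 uM ATP at 22 °C, for five cycles with NaOH stripping and re-annealing between them.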
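Further: ATP exposure 15 min at 22 °C before imaging.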

| Sequence | switch fluorescence ratio |
| --- | --- |
| GCGGGATGCA | 0.993 ± 0.033 |
| TATTTCGTGG | 0.985 ± 0.024 |
| GGGTGGGCGG | 0.974 ± 0.022 |
| ACGAGGATTG | 1.042 ± 0.0021 |
| AGGGGTGCGG | 1.04 ± 0.08 |
| TTTTTCGGTT | 0.998 ± 0.039 |
| TTTGATATCC | 1 ± 0.017 |
| TCGGTGTCGC | 0.9621 ± 0.0031 |
| GGATAAGGAC | 0.984 ± 0.019 |
| TCATTCGCAG | 3.73 ± 0.77 |
| TTGTCGTGCC | 1.031 ± 0.0098 |
| TAAGGGGGGG | 1 ± 0.029 |
| TATAAAGAGG | 0.987 ± 0.038 |
| GTTGTTAGCG | 1 ± 0.037 |
| TGATTGGGTG | 1.01 ± 0.054 |
| ATTATTGCGT | 1.03 ± 0.04 |
| TGATAGAGGA | 0.988 ± 0.059 |
| ATAGACTTCT | 0.9966 ± 0.0064 |
| AGTTCTAGGG | 0.971 ± 0.031 |
| CGCTTTTGGG | 0.999 ± 0.03 |
| AGAGGAAAGG | 1.022 ± 0.0041 |
| GATAGTGCTG | 1.05 ± 0.12 |
| AAGAGGTGAA | 0.987 ± 0.013 |

| Sequence | switch fluorescence ratio |
| --- | --- |
| ATTCAGGTTT | 0.992 ± 0.026 |
| GGCTGTGTTA | 0.9958 ± 0.0024 |
| GATATTTGGT | 0.989 ± 0.048 |
| TCTTGATCTG | 1.016 ± 0.0021 |
| ATATGCGAAC | 1.1 ± 0.035 |
| TGGGGGTAAT | 0.992 ± 0.029 |
| TATCGGGGTT | 0.98 ± 0.046 |
| CAAGGACTGT | 1.05 ± 0.016 |
| AGAGGATGAT | 0.962 ± 0.013 |
| AAGGTGTCGG | 0.9895 ± 0.0037 |
| AAGGGTTGCG | 0.985 ± 0.024 |
| TTTAACGTCA | 1.05 ± 0.023 |
| GTTATGGGGT | 1.01 ± 0.04 |
| CAATGGATTT | 1.026 ± 0.007 |
| TTTTTTGTTT | 1 ± 0.029 |
| CGGTATAACG | 0.997 ± 0.043 |
| TGTAATTGGG | 0.9881 ± 0.0015 |
| CTGGTGAGGG | 0.9931 ± 0.0091 |
| CACGGATGTT | 1.02 ± 0.093 |
| CGAATTCCAC | 1.024 ± 0.0099 |
| GGTCTTGTTG | 1.02 ± 0.036 |
| AAGCTTATGC | 1.04 ± 0.085 |
| CTTTGAGGTG | 1.04 ± 0.069 |

| Sequence | switch fluorescence ratio |
| --- | --- |
| GGGGCTTGTA | 1 ± 0.016 |
| CCGGATGTTG | 0.987 ± 0.028 |
| TGACTGTATT | 1.14 ± 0.042 |
| GAGCCGGGTA | 0.9982 ± 0.0063 |
| TGAGGGGCGC | 0.988 ± 0.028 |
| GGAGTTGATT | 0.9808 ± 0.0015 |
| CGGTTTGTGT | 0.998 ± 0.029 |
| TGGTGGCTTA | 0.9827 ± 0.0025 |
| GTGGCCCCGG | 1.02 ± 0.043 |
| TATGTGAGCA | 0.99 ± 0.014 |
| GTTAATATAA | 0.9971 ± 0.003 |
| TTTACGTTTT | 1.03 ± 0.041 |
| GATATATCAG | 0.9771 ± 0.0017 |
| TCATACCATT | 1 ± 0.024 |
| ACAAGGTATA | 1.15 ± 0.15 |
| ATATGGTTGA | 0.964 ± 0.049 |
| AAAATCAAAT | 1.02 ± 0.019 |
| GTTTGGGGTA | 0.986 ± 0.013 |
| GTTAAAAACA | 1.03 ± 0.052 |
| TGAATGGGCA | 0.973 ± 0.024 |
| TTGATGGGAC | 1.12 ± 0.021 |
| TTAAGGGGA | 1.06 ± 0.11 |
| AATTTGGTCG | 0.978 ± 0.03 |

| Sequence | switch fluorescence ratio |
| --- | --- |
| GCTTATTGTA | 0.9813 ± 0.0081 |
| TGAAAAAACA | 1.02 ± 0.019 |
| TGGGTAGTGT | 1 ± 0.026 |
| GGTCATAGTG | 1.01 ± 0.018 |
| TAGTTGGGAT | 0.991 ± 0.029 |
| CCCGAGGGGT | 1.019 ± 0.0065 |
| AGTGCGTGGG | 1.002 ± 0.0061 |
| TACTCGGGGT | 1.004 ± 0.0064 |
| CGCATTTAAG | 1.18 ± 0.046 |
| TGCTGCCGGT | 1.02 ± 0.096 |
| CGGGTCCGTA | 0.9751 ± 0.004 |
| ATAAGTGGCA | 0.944 ± 0.027 |
| GATGGGCACT | 1.05 ± 0.029 |
| TTTCGACGTT | 0.99 ± 0.011 |
| TTAAAGAGAA | 1 ± 0.013 |
| CGGCATTGGG | 1.02 ± 0.04 |
| AAACGGGGAC | 1.07 ± 0.15 |
| TTTACCCGGC | 1.1 ± 0.13 |
| GTACGAGTCC | 1.01 ± 0.015 |
| GCGTGTTCGT | 1.031 ± 0.0084 |
| GTGTTTTTTT | 0.991 ± 0.023 |
| GGTGGGGGTT | 0.999 ± 0.036 |
| CCTGGCTATC | 3.44 ± 0.91 |

| Sequence | switch fluorescence ratio |
| --- | --- |
| GCGAGACTGT | 1.07 ± 0.04 |
| TTCTTTGTTG | 0.984 ± 0.046 |
| TGTTAGTTGG | 1.004 ± 0.0038 |
| ATTATGTCGT | 1 ± 0.013 |
| CGTGTTGTAC | 1.13 ± 0.024 |
| TTGAAATGTT | 0.9923 ± 0.0033 |
| ATATCCCAGG | 4.21 ± 0.64 |
| TAAGTCGGGA | 0.952 ± 0.025 |
| CAGTTTGTTA | 0.994 ± 0.036 |
| TTTTCTGTCG | 1.06 ± 0.063 |
| AAGTTTGTCT | 1.004 ± 0.0053 |
| CACTTAGGCT | 1.01 ± 0.011 |
| GCGGGGGATC | 1 ± 0.03 |
| CGACGAACTT | 1.236 ± 0.0059 |
| CTCATATTTA | 1.01 ± 0.019 |
| TGCCTAGTTT | 0.995 ± 0.064 |
| GGGTGAACTT | 0.988 ± 0.033 |
| GAATGTATTG | 1.013 ± 0.006 |
| ATCGGGTAA | 0.9965 ± 0.0029 |
| AAGGGCATTG | 0.998 ± 0.015 |
| TGGGGGGG | 1 ± 0.024 |
| ATGTGATGCT | 1.012 ± 0.0044 |
| TTTAATTTTA | 1 ± 0.02 |

| Sequence | switch fluorescence ratio |
| --- | --- |
| TATGCATTTC | 1.08 ± 0.0049 |
| TGTTAGTTAT | 1.06 ± 0.066 |
| GGTCCACCGT | 0.989 ± 0.014 |
| CATGTTGATG | 1.0056 ± 0.00049 |
| CTTATATGAG | 1.001 ± 0.0025 |
| TTCCGGTTTG | 0.999 ± 0.054 |
| GACTAAAGGT | 1.01 ± 0.013 |
| TATTTGGGGA | 0.999 ± 0.024 |
| TGTGTGGGTT | 1.01 ± 0.035 |
| GCATCATGTT | 0.987 ± 0.044 |
| TGGGTTGGGA | 0.991 ± 0.035 |
| TGGATTACTT | 1.02 ± 0.026 |
| GTGCCTAGTG | 1.017 ± 0.01 |
| CGGTTGTCGG | 0.997 ± 0.013 |
| TTTTCAATGA | 0.994 ± 0.041 |
| TCCAGGTGGG | 2.39 ± 0.19 |
| TGGAAAGTGG | 0.9818 ± 0.005 |
| GCATGATAAT | 1.004 ± 0.0013 |
| TCGATTTGGT | 0.9749 ± 0.008 |
| AGATAGGG | 0.96188 ± 0.00038 |
| GGGTTTATCA | 1.03 ± 0.03 |
| GGGTGCATGC | 1.07 ± 0.084 |
| TAGAATGTT | 1.01 ± 0.015 |

| Sequence | switch fluorescence ratio |
| --- | --- |
| TTTCGGATGG | 1.03 ± 0.057 |
| GGTAGTCTTT | 0.996 ± 0.02 |
| TGGGGCTGGT | 0.99 ± 0.018 |
| GTTTGTGGTT | 0.988 ± 0.019 |
| TGTTTTTGAG | 0.9888 ± 0.0034 |
| TACTCGCCGT | 1.053 ± 0.0064 |
| GTCTATCTCT | 1.013 ± 0.0093 |
| ATGAATGTTT | 1 ± 0.026 |
| CTAGTCTAAT | 1.01 ± 0.039 |
| GCAGGGGGTA | 0.999 ± 0.027 |
| ATAAGAGTCT | 1.03 ± 0.094 |
| TTCTGTTTGG | 1.01 ± 0.017 |
| AAGGGGGTGG | 1.02 ± 0.059 |
| CGGGGACTTC | 1.02 ± 0.019 |
| GAGACGTTTT | 0.97 ± 0.015 |
| GTTGGCAACA | 1.04 ± 0.056 |
| TTTAGCATAA | 1.23 ± 0.13 |
| AAAAAAATTG | 1 ± 0.017 |
| TAATAGATCC | 1.01 ± 0.067 |
